Source: patent US20250171542A1

Target: Trop2 on MDA-MB-231 cell surface (UniProt P09758)
Experiment: cell-based or functional assay

Chain of Trop2 on MDA-MB-231 cell surface (P09758 27-323 limits assumed): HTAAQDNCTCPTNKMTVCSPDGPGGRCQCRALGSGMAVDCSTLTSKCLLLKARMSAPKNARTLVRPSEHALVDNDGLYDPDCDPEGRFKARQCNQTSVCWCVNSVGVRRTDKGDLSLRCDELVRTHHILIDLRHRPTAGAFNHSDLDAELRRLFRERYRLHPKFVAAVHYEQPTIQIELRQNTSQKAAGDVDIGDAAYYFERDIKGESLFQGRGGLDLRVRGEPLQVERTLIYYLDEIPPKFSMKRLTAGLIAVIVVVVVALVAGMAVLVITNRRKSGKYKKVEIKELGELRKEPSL

Internalization (%), FACS, 0.25 µg/ml, 2 h: 35.7% | Internalization (%), FACS, 0.25 µg/ml, 4 h: 45.1% | Internalization (%), FACS, 0.5 µg/ml, 2 h: 38% | Internalization (%), FACS, 0.5 µg/ml, 4 h: 45.6% | Internalization (%), FACS, 1 µg/ml, 2 h: 36.5% | Internalization (%), FACS, 1 µg/ml, 4 h: 44.5% | Internalization (%), FACS, 2 µg/ml, 2 h: 36.2% | Internalization (%), FACS, 2 µg/ml, 4 h: 46.1%
B1: Trodelvy (Sacituzumab govitecan-hziy, Immunomedics) (antibody, INN chains, looked up, V domains shown)
VH: QVQLQQSGSELKKPGASVKVSCKASGYTFTNYGMNWVKQAPGQGLKWMGWINTYTGEPTYTDDFKGRFAFSLDTSVSTAYLQISSLKADDTAVYFCARGGFGSSYWYFDVWGQGSLVTVSS
VL: DIQLTQSPSSLSASVGDRVSITCKASQDVSIAVAWYQQKPGKAPKLLIYSASYRYTGVPDRFSGSGSGTDFTLTISSLQPEDFAVYYCQQHYITPLTFGAGTKVEIKR
modifications: govitecan (SN-38) payload
